Measurements reported in publication PMC12356879 (Nature Communications, 2025).

What was measured:
[1] = target: post-translational lamin construct with a single N-terminal cysteine (pJS81) (human) (UniProt P02545); assay: SEC
optical tweezers = target: the molecule itself; assay: optical tweezers

Row | stoichiometry N [1] | Molecule | mean rupture force (optical tweezers)
1 | 2 | post-translational lamin construct with a single N-terminal cysteine (pJS81) (from UniProt P02545 31-311) (domain or fragment) | 
2 |  | LMNA_(31-311) ribosome-bound nascent chain (domain or fragment) EKEDLQELNDRLAVYIDRVRSLETENAGLRLRITESEEVVSREVSGIKAAYEAELGDARKTLDSVAKERARLQLELSKVREEFKELKARNTKKEGDLIAAQARLKDLEALLNSKEAALSTALSEKRTLEGELHDLRGQVAKLEAALGEAKKQLQDEMLRRVDAENRLQTMKEELDFQKNIYSEELRETKRRHETRLVEIDNGKQREFESRLADALQELRAQHEDQVEQYKKELEKTYSAKLDNARQSAERNSNLVGAAHEELQQSRIRIDSLSAQLSQLQK | 14 pN
3 |  | LMNA_(31-123) ribosome-bound nascent chain (domain or fragment) EKEDLQELNDRLAVYIDRVRSLETENAGLRLRITESEEVVSREVSGIKAAYEAELGDARKTLDSVAKERARLQLELSKVREEFKELKARNTKK | 7 pN
